{"source": "paper doi:10.1101/2025.09.29.679341", "about": "(bioRxiv, 2025)", "proteins": {"B1": {"name": "truncated β3-SBP (GABAA receptor β3 subunit, M3-M4 loop replaced by SQPARAA), from Expi293F cells (receptor)", "chain": "QSVNDPGNMSFVKETVDKLLKGYDIRLRPDFGGPPVCVGMNIDIASIDMVSEVNMDYTLTMYFQQYWRDKRLAYSGIPLNLTLDNRVADQLWVPDTYFLNDKKSFVHGVTVKNRMIRLHPDGTVLYGLRITTTAACMMDLRRYPLDEQNCTLEIESYGYTTDDIEFYWRGGDKAVTGVERIELPQFSIVEHRLVSRNVVFATGAYPRLSLSFRLKRNIGYFILQTYMPSILITILSWVSFWINYDASAARVALGITTVLTMTTINTHLRETLPKIPYVKAIDMYLMGCFVFVFLALLEYAFVNYIFFSQPARAAAIDRWSRIVFPFTFSLFNLVYWLYYVN"}}, "target": "the molecule itself", "test": "cryo-EM structure"}
{"protein": "B1", "values": [{"measurement": "stoichiometry N", "result": 5}]}
